Measured values: article PMC10838314, “Exploring TRF2-Dependent DNA Distortion Through Single-DNA Manipulation Studies”

B1: 5-repeat telomeric hairpin (structured_DNA)
DNA: CTTGTGCACAGACTCGTTTGGTTATCGAAGGTTAGGGTTAGGGTTAGGGTTAGGGTTAGGGTGCTACCAGGAAAAAAAACCTGGTAGCACCCTAACCCTAACCCTAACCCTAACCCTAACCTTCGATAACCTTTGCAGCCAGGTCAGTAGCGAC
modifications: 5' phosphate
B2: non-telomeric hairpin (structured_DNA)
DNA: CTTGTGCACAGACTCGTTTGGTTATCGAAGGTAAGGTCTGGCGAACGGTGTATTACCGGTTTGCTACCAGGAAAAAAAACCTGGTAGCAAACCGGTAATACACCGTTCGCCAGACCTTACCTTCGATAACCTTTGCAGCCAGGTCAGTAGCGAC
modifications: 5' phosphate

What was measured:
Settings in all cases: protein: recombinant, tags: N-terminal His6 removed by TEV, chain copies: 2, label: 5' biotin and 3' thiol via ligated handles, 52 bp stem, 8 nt loop
[1] = target: TRF2 45-500 (deltaB-TRF2) (Homo sapiens, UniProt Q15554 87-542, del43-86); test: single-molecule magnetic tweezers hairpin unzipping; Hill n=1.0±0.2; Magnetic tweezers: 150 mM KCl (stretching; full buffer, pH and temperature not in material). EMSA: 25 mM HEPES-Na pH 7.5, 50 mM NaCl, 4 C, 30 min
hTRF2 full-length [2] = target: T1, hTRF2 full-length (Homo sapiens, UniProt Q15554 43-542); test: single-molecule magnetic tweezers hairpin unzipping; Hill n=1.0±0.3; Fb 7 pN; Magnetic tweezers: 150 mM KCl (stretching; full buffer, pH and temperature not in material). EMSA: 25 mM HEPES-Na pH 7.5, 50 mM NaCl, 4 C, 30 min
TRFH (TRF2 42-245) = TRFH (TRF2 42-245) (Homo sapiens, UniProt Q15554 84-287); test: single-molecule magnetic tweezers hairpin unzipping; no unzipping delay up to 5 uM; very dynamic binding not excluded; Magnetic tweezers: 150 mM KCl (stretching; full buffer, pH and temperature not in material). EMSA: 25 mM HEPES-Na pH 7.5, 50 mM NaCl, 4 C, 30 min
hTRF2 full-length [3] = target: T1, hTRF2 full-length; test: single-molecule magnetic tweezers hairpin unzipping; Hill n=1.2±1.7; Magnetic tweezers: 150 mM KCl (stretching; full buffer, pH and temperature not in material). EMSA: 25 mM HEPES-Na pH 7.5, 50 mM NaCl, 4 C, 30 min

T1 sequence (Q15554 43-542): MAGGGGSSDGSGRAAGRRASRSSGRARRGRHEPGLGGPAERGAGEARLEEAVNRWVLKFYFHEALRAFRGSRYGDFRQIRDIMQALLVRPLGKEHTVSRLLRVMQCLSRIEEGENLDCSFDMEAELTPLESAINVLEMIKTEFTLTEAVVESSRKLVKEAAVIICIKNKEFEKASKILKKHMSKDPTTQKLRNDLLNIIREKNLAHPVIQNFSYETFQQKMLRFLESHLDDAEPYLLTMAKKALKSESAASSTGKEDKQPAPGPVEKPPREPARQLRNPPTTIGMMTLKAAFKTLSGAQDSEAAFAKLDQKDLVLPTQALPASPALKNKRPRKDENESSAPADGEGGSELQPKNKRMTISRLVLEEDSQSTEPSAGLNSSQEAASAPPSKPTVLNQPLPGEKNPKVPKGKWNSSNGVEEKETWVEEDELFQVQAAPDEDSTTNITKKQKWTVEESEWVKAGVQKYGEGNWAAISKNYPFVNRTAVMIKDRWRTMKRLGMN
Chain of TRFH (TRF2 42-245) (Q15554 84-287): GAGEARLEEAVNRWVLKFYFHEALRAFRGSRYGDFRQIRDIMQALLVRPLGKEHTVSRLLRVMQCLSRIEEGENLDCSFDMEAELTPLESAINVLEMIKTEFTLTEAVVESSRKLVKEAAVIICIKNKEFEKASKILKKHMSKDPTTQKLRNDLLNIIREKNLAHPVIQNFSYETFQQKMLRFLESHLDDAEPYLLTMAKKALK
Chain of TRF2 45-500 (deltaB-TRF2) (Q15554 87-542, stated change not applied): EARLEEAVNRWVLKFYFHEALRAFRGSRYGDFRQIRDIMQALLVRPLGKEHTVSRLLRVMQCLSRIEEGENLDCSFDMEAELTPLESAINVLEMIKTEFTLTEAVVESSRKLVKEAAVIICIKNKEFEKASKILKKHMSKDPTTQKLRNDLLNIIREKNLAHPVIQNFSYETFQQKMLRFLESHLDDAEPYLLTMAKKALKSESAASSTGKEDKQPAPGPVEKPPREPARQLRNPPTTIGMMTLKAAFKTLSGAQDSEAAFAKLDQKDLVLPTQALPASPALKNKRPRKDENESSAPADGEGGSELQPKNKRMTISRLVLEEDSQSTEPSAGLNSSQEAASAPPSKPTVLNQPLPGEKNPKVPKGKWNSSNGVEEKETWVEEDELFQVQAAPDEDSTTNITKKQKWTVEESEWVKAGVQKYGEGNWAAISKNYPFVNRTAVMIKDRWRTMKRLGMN

Binder	Kd [1] [nM]	Kd (hTRF2 full-length [2]) [nM]	binding result (TRFH (TRF2 42-245))	Kd (hTRF2 full-length [3]) [nM]
B1	284 ± 70.5	10.3 ± 2.9	no binding	–
B2	–	–	–	76.8 ± 31.7
